In patent publication US20090053203A1:

Target: receptor for advanced glycated end products (RAGE) (human) (UniProt Q15109)
Experiment: cell-based or functional assay
Conditions: scale: relative to saline-treated controls

receptor for advanced glycated end products (RAGE) (human), sequence (Q15109 23-404): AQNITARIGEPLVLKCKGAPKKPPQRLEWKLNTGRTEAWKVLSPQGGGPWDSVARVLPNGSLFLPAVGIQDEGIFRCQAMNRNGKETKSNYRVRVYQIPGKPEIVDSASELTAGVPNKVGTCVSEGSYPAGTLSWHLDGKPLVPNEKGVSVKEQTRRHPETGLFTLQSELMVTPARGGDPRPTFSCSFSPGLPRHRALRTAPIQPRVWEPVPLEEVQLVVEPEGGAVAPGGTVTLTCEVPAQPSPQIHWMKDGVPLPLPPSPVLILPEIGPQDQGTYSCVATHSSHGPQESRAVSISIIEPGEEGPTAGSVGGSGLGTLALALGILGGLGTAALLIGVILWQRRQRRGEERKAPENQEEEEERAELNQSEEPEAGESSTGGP

- Phospbo-PKCa/bII (T638/641) (ELISA, 293 kidney cells, 4 hr): 1.52
- Phospho-ATF2 (T71) (ELISA, 293 kidney cells, 4 hr): 1.61
- Phospho-Akt (S473) (ELISA, 293 kidney cells, 4 hr): 1.92
- Phospho-Akt (T308) (ELISA, 293 kidney cells, 4 hr): 1.06
- Phospho-ERK (T202/Y204) (ELISA, 293 kidney cells, 4 hr): 1
- Phospho-IRS1 (S307) (ELISA, 293 kidney cells, 4 hr): 1.56
- Phospho-IRS2 (S731) (ELISA, 293 kidney cells, 4 hr): 1.03
- Phospho-JNK (T183/Y185) (ELISA, 293 kidney cells, 4 hr): 1.38
- Phospho-PKCmu (S916) (ELISA, 293 kidney cells, 4 hr): 0.95
- Total Akt1 (ELISA, 293 kidney cells, 4 hr): 1.27
- Total Akt2 (ELISA, 293 kidney cells, 4 hr): 0.81
- Total IRS-1 (ELISA, 293 kidney cells, 4 hr): 1.07
- Total IRS-2 (ELISA, 293 kidney cells, 4 hr): 1.47
- Total collagen-IV (ELISA, 293 kidney cells, 4 hr): 1.34
Substance: glycated hemoglobin (ligand)
